Test results: paper PMC8080463

T1: CRP (UniProt P02741 19-224)
T1 sequence: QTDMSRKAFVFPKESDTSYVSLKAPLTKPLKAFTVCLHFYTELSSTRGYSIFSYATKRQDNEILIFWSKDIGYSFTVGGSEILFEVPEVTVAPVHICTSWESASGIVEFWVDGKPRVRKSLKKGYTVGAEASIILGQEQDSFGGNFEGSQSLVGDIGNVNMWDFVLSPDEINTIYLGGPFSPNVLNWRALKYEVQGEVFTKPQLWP

T2: PLGF (Homo sapiens, UniProt P49763 19-141+214-221, internal_change)
T2 sequence: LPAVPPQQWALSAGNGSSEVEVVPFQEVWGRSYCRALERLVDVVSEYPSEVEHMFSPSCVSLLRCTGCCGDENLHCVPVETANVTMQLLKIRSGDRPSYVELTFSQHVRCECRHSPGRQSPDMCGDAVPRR


Biological target: T1, CRP
Test: SPR

Binder	binding result
GGGATCGTGGAGTTCTGGGTAGATGGGAAGCCCAGGG (ssDNA) [CRP-PQS1]	no binding

Biological target: HB-EGF (UniProt Q99075 63-148)
Sequence (Q99075 63-148): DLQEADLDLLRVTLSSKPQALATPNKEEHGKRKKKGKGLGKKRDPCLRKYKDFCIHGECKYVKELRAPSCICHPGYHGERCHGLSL
Test: SPR

Binder	binding result
GGGAGGGTCCGGGTTGCTGG (structured_DNA) [HBEGF-PQS1]	no binding
GGAGGCGGCGAGG (structured_DNA) [HBEGF-PQS2]	no binding
GGCGGCCACTGGGCGCTGG (ssDNA) [HBEGF-PQS3]	no binding
GGGCGGCGGAGCTCAGG (ssDNA) [HBEGF-PQS4]	no binding
GGCCGGGAATAAGGCTCCAGG (ssDNA) [HBEGF-PQS5]	no binding
GGCGCGCGGGGTCGGGCGGCCGCGCGGG (ssDNA) [HBEGF-PQS6]	no binding
GGCGGGCGGCAGACGGTGCCCGG (ssDNA) [HBEGF-PQS7]	no binding
GGCACGGGCCACTTGGTGGGG (ssDNA) [HBEGF-PQS10]	no binding
GGACGGGCGTCGGCATCGG (ssDNA) [HBEGF-PQS11]	no binding
GGTCAGGGGTCTGGGCGGG (structured_DNA) [HBEGF-PQS12]	no binding
GGAGCGGCTTCGGAGAGG (ssDNA) [HBEGF-PQS13]	no binding
GGAGGCGGCCGG (ssDNA) [HBEGF-PQS14]	no binding

Biological target: T2, PLGF
Test: SPR

Binder	binding result
GGGCGCCGAGGGGCAGGCGGGTCCCGGGG (structured_DNA) [PLGF-PQS1]	no binding
GGGAGGGAGGGAGGG (structured_DNA) [PLGF-PQS2]	no binding
GGGCCTCGCGGGCCAGTCGGGCGTCGCGGG (structured_DNA) [PLGF-PQS3]	no binding
GGGCGGGTGTCCCGGGTGTCGGG (structured_DNA) [PLGF-PQS4]	no binding

Biological target: bFGF (UniProt P09038 143-288)
Sequence (P09038 143-288): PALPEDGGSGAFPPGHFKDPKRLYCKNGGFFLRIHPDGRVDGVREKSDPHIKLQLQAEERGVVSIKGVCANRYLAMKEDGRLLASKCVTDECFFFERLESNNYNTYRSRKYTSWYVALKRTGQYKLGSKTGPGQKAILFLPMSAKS
Test: SPR

Binder	binding result
GGCTCGAGGCTGGGGGACCGCGG (ssDNA) [bFGF-PQS4]	no binding
GGGAGGCTGGGGGGCCGGGGCCGGGG (ssDNA) [bFGF-PQS5]	no binding
GGAGCGGGTCGGAGG (ssDNA) [bFGF-PQS6]	no binding
GGGCCGGGGCCGGGGGACGG (ssDNA) [bFGF-PQS7]	no binding
GGTTTCTGGCCGCGCGGCCCTCGG (ssDNA) [bFGF-PQS8]	no binding
GGCTGCGGCGTAGGCCCGGG (ssDNA) [bFGF-PQS9]	no binding
GGGCCGGGGGTACTGGTTTACAGG (ssDNA) [bFGF-PQS10]	no binding
GGAAAGGAGGGGG (ssDNA) [bFGF-PQS11]	no binding
GGGAGGAGGGTGCAGGCTGGAGG (ssDNA) [bFGF-PQS12]	no binding
GGCCGGGCGGGAAGG (ssDNA) [bFGF-PQS13]	no binding
GGGCAAGGCGGGCAGCGTGG (ssDNA) [bFGF-PQS14]	no binding
GGGCACGGCCCCGGCCCCGG (ssDNA) [bFGF-PQS15]	no binding
GGCGAGCCGGCGGCCCGGGACCTGGG (ssDNA) [bFGF-PQS16]	no binding
GGGGGCGGGGGAGAGGCGAGGGGCGGGGGG (ssDNA) [bFGF-PQS17]	no binding
GGCCGCGGCAGGGCTTTGG (ssDNA) [bFGF-PQS18]	no binding

Biological target: ApoE4 (UniProt P02649 19-317, C130R)
Sequence (P02649 19-317 C130R): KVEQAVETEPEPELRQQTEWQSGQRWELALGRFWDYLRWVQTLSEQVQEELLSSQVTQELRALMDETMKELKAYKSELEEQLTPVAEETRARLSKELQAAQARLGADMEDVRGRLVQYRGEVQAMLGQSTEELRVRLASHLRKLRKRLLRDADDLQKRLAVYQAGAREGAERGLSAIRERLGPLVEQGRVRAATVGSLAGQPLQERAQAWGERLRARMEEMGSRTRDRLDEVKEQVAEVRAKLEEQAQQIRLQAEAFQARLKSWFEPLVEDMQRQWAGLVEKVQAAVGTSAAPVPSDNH
Test: SPR

Binder	binding result	Kd
GGCCCGGCTGGGCGCGG (structured_DNA) [ApoE4-PQS2]	no binding	–
GGCCCCTGGTGGAACAGGG (structured_DNA) [ApoE4-PQS3]	no binding	–
GGAGCGGGCCCAGGCCTGGG (structured_DNA) [ApoE4-PQS4]	no binding	–
GGATGGAGGAGATGGGCAGCCGG (structured_DNA) [ApoE4-PQS5]	no binding	–
GGACGAGGTGAAGGAGCAGG (structured_DNA) [ApoE4-PQS6]	no binding	–
GGCTGGTGGAGAAGGTGCAGG (structured_DNA) [ApoE4-PQS7]	no binding	–
GGGCTGGGATGGGGCGGG (structured_DNA) [ApoE4-PQS8]	no binding	–
GGTGGCGGAGG (structured_DNA) [ApoE4-PQS1]	–	60 nM

Biological target: HGF (UniProt P14210;P14210 32-494;495-728)
Sequence (P14210 32-494, chain 1 of 2): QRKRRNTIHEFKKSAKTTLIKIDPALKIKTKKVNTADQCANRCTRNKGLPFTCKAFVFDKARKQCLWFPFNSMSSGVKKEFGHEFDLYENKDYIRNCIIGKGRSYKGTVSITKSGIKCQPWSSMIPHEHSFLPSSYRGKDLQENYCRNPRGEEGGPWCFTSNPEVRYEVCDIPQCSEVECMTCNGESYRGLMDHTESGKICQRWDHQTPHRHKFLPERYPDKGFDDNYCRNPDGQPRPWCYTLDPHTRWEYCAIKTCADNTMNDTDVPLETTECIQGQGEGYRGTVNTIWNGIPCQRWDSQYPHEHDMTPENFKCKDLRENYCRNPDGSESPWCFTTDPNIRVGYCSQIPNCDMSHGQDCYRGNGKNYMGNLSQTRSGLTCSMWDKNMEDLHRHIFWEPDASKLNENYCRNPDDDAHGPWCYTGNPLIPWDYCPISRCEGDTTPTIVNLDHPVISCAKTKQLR
Sequence (P14210 495-728, chain 2 of 2): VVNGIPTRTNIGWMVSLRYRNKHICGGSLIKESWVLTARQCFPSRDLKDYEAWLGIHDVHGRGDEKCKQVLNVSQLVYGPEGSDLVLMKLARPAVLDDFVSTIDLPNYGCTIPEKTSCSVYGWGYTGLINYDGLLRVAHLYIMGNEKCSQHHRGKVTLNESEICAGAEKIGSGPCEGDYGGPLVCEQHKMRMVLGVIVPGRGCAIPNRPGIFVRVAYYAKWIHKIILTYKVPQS
Test: SPR

Binder	binding result
GGAATAGGGAAGGTTAGCAGG (ssDNA) [HGF-PQS2]	no binding
GGGGATGGCGATGGGGAGCAGG (structured_DNA) [HGF-PQS3]	no binding
GGGCTGGCAGGAGTTTGG (ssDNA) [HGF-PQS4]	no binding
GGACGGGCTGGCGG (ssDNA) [HGF-PQS5]	no binding
GGAAGGGAGGAGCAAGG (structured_DNA) [HGF-PQS6]	no binding
GGAAAGGAGGGGGCTGG (structured_DNA) [HGF-PQS9]	no binding

Biological target: T1, CRP
Test: EMSA

Binder	binding result
GGGGACTGTTGTGGGGTGGGGGGAGGGGGG (ssDNA) [CRP-PQS2]	binds

Biological target: Annexin 2 (UniProt P07355 2-339)
Sequence (P07355 2-339): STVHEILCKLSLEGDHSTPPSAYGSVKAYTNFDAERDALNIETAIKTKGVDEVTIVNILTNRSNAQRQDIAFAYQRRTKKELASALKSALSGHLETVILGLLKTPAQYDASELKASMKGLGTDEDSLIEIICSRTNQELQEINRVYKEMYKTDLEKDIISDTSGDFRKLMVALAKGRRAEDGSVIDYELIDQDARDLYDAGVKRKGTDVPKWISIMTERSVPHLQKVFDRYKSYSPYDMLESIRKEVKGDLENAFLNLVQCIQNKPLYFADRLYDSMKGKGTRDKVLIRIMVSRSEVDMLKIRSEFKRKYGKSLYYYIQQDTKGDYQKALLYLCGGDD
Test: EMSA

Binder	binding result
GGACCTGCGGCTCCCTGGGCGG (structured_DNA) [Annexin2-PQS1]	binds
GGCGCCTGGCGCGTCTGGAATGCGG (structured_DNA) [Annexin2-PQS2]	binds
GGGCAGGGCCAGGGGCGCTGGG (structured_DNA) [Annexin2-PQS5]	binds
GGGGAGGCGGGGCGGGGCGGGG (structured_DNA) [Annexin2-PQS6]	binds
GGGCCGGGAGGGTGCAGGG (structured_DNA) [Annexin2-PQS7]	binds

Biological target: TNF-alpha (UniProt P01375 77-233)
Sequence (P01375 77-233): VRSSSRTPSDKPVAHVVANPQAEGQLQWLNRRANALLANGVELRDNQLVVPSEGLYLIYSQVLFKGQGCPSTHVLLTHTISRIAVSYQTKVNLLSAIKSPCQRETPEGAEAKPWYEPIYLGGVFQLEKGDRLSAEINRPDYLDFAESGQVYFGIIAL
Test: EMSA

Binder	binding result
GGGTTTGGGTTTGGGGGTAGGG (structured_DNA) [TNFa-PQS1]	no binding
GGGCATGGGGACGGGGTTCAGCCTCCAGGG (structured_DNA) [TNFa-PQS2]	no binding
GGGTCCGAACAGGGACGATGGGGGTGGG (structured_DNA) [TNFa-PQS3]	no binding
GGGAGAGAGGGAGGGAGGTCGTTTGGG (structured_DNA) [TNFa-PQS4]	no binding
